Measured values taken from patent US20210403583A1 (ELIXIRON IMMUNOTHERAPEUTICS HONG KONG, published 2021).

T1: cynomolgus CSF1R expressed on 293F cells (cynomolgus monkey, UniProt P07333 20-972 (human entry))
T1 construct: also called cynoCSF1R
T1 chain: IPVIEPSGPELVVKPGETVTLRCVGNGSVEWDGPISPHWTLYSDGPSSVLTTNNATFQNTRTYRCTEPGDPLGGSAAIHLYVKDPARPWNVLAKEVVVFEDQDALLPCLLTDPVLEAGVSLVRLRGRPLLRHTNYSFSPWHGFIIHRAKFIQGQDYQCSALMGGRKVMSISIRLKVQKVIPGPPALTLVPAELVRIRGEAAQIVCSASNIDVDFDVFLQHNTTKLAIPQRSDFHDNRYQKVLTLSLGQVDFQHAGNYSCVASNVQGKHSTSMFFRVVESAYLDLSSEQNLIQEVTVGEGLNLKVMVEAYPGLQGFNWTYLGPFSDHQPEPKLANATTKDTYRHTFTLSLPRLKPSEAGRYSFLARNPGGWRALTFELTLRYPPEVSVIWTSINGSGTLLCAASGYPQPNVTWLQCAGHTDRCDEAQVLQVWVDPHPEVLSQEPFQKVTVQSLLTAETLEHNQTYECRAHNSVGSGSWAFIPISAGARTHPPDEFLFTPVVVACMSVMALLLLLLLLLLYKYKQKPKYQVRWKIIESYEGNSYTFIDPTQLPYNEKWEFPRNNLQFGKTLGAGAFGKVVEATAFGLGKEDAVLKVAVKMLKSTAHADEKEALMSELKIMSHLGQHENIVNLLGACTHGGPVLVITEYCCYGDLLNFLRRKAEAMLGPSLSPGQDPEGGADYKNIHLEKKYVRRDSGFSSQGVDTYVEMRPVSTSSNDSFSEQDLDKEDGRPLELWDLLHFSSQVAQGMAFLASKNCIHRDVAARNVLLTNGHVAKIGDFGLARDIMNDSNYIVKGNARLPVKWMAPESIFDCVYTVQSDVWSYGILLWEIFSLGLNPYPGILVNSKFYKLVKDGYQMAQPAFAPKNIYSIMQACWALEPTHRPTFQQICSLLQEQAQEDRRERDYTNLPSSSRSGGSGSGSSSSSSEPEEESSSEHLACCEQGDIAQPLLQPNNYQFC

T2: recombinant human IL-10Ra fusion protein (R&D Systems) (human, UniProt Q13651 22-235)
T2 sequence (looked up): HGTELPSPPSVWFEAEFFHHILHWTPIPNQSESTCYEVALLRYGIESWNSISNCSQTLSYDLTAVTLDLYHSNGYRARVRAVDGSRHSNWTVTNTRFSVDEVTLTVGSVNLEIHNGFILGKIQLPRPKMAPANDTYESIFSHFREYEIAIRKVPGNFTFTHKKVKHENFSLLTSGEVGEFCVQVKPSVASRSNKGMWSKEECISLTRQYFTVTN

B1: chimeric anti-CSF1R/IL10 fusion protein 6D4/IL10 (antibody, human IgG1, kappa)
heavy: not shown
light: DIQMNQSPSSLSASLGDTITITCHASQNINVWLSWYQQKPGNIPKLLIYKASNLHTGVPSRFSGSGSGTGFTLTISSLQPEDIATYYCQQGQSYPYTFGGGTKLEIKRTVAAPSVFIFPPSDEQLKSGTASVVCLLNNFYPREAKVQWKVDNALQSGNSQESVTEQDSKDSTYSLSSTLTLSKADYEKHKVYACEVTHQGLSSPVTKSFNRGEC
notes: Antibody-cytokine fusion: human IL10 fused by a linker to the C-terminus of the heavy chain
B2: chimeric anti-CSF1R/IL10 fusion protein 6D4/(IL10)2 (antibody, human IgG1, kappa)
heavy: not shown
light: B1 light
notes: Antibody-cytokine fusion: two human IL10 in tandem fused by linkers to the C-terminus of the heavy chain

What was measured:
[1] = molecular target: T1, cynomolgus CSF1R expressed on 293F cells; experiment: flow cytometry titration on 293F cells overexpressing cynomolgus CSF1R, anti-human IgG-Alexa Fluor 647
Source text: Materials and methods: The gene segments encoding full-length human CSF1R or cynomolgus CSF1R were obtained using Thermo gene synthesis service and cloned in a mammalian expression vector pCDNA3.4. […] After washing with FACS buffer (2%FBS in PBS), the cells were stained with anti-human IgG-Alexa Fluor 647 and analyzed by Attune N×T Flow Cytometer (Thermo Scientific).

[2] = molecular target: T2, recombinant human IL-10Ra fusion …; experiment: ELISA, coated human IL-10Ra fusion protein
Description: Materials and methods: Recombinant human IL-10Ra fusion protein (R&D Systems) were immobilized on 96 well microtiter plate at a concentration of 1 μg/ml in Coating Solution (SeraCare) overnight at 4° C. The wells were washed with wash solution (0.05% Tween20 in imidazole-buffered saline) and blocked with 1% BSA. Serial dilutions of Ab/IL-10 fusion proteins were added to wells. After incubation at 37° C. for lhr, the wells were washed with wash solution. Peroxidase-conjugated goat anti-human kappa light chain antibody (Bethyl) was applied to each well at 37° C. for 1 hr incubation. After washing, the wells were developed with TMB substrate for 5-10 min at RT and then stopped with 1 N HCl. Thereafter absorbance was measured at 450 nm and 650 nm. The EC50 value was calculated through GraphPad Prism7.

[3] = molecular target: human CSF1R expressed on cells (293F/huCSF1R stable cells; AML5 cells; human monocytes and macrophages) (human, UniProt P07333 20-972); experiment: cell-based or functional assay
[4] = molecular target: T3, recombinant human CSF1R-Fc fusion protein (human, UniProt P07333 20-512); experiment: competition ELISA, coated human CSF1R-Fc, competitor biotinylated human CSF1-His 2.5 ug/mL
T3 construct: probably the same protein; also called CSF1R-Fc (dimer); not shown: Fc part
Description: Materials and methods: Recombinant human CSF1R-Fc or mouse CSF1R-Fc (Sino Biological) fusion protein was immobilized on 96 well microtiter plate at a concentration of 1 μg/mL in Coating Solution (SeraCare) overnight at 4° C. The wells were washed with wash solution and blocked with 1% BSA at RT. Serial dilutions of Ab/IL-10 fusion proteins were added to wells. Then 2.5 ug/mL biotinylated human CSF1-His (Biolegend) or mouse CSF1-His (Sino Biological) was added and incubated for 1 h at 37° C. After washing, Streptavidin-HRP (Jackson ImmunoResearch) was applied to wells at RT for 1 h incubation. After washing, the wells were developed with TMB substrate for 5-10 min at RT and the stopped with 1 N HCl. Thereafter absorbance was measured at 450 nm and 650 nm. The IC₅₀ values were calculated through GraphPad Prism7.

[5] = molecular target: T3, recombinant human CSF1R-Fc fusion …; experiment: ELISA, coated human CSF1R-Fc
Description: Materials and methods: Recombinant human CSF1R-Fc, or mouse CSF1R-Fc (Sino Biological) were immobilized on 96 well microtiter plate at a concentration of 1 μg/mL in Coating Solution (SeraCare) overnight at 4° C. The wells were washed with wash solution (0.05% Tween20 in imidazole-buffered saline) and blocked with 1% BSA. Serial dilutions of the anti-CSF1R/IL-10 fusion proteins were added to wells. After incubation at 3TC for 1 h, the wells were washed with wash solution. To detect chimeric Ab/IL10 fusions, peroxidase-conjugated goat anti-human kappa light chain antibody (Bethyl) was applied to each well at 3TC for 1 h incubation. To detect AB98 or AB98/1110 fusions, peroxidase-conjugated Goat anti-mouse IgG Fab antibody (Jackson immunoresearch) was applied to each well at 3TC for 1 h incubation. After washing, the wells were developed with TMB substrate for 5-10 min at RT and then stopped with 1 N HCl. Thereafter absorbance was measured at 450 nm and 650 nm.

T3 sequence (P07333 20-512 limits assumed): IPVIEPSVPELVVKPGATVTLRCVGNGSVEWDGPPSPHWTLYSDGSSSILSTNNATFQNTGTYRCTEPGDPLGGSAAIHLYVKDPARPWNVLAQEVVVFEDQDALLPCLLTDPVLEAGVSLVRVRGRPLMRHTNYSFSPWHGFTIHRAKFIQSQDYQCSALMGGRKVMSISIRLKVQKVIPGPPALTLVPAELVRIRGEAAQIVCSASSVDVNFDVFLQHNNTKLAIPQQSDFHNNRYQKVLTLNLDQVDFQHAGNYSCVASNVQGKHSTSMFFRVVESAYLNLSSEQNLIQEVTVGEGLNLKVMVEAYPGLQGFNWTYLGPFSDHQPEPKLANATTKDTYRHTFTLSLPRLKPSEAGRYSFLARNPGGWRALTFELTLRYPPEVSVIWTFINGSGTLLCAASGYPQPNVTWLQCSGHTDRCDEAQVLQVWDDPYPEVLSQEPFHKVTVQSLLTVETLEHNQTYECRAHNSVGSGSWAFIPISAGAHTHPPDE

Row | Binder | binding result [1] | EC50 [2] | IC50 (M), inhibition of AML5 cell proliferation (CSF1-dependent) [3] | IC50 [4] | EC50 [5]
1 | B1 | binds | 2.76 nM | 4.92e-09 M | 1.4 nM | 0.479 nM
2 | B2 |  | 6.08 nM |  |  | 0.393 nM
